Source: article PMC2883168
pKd: −log10 of the molar value.

Target: human FGFR1-IIIb (human)
Assay: SPR

Sequence of human FGFR1-IIIb (human) (P11362 22-822): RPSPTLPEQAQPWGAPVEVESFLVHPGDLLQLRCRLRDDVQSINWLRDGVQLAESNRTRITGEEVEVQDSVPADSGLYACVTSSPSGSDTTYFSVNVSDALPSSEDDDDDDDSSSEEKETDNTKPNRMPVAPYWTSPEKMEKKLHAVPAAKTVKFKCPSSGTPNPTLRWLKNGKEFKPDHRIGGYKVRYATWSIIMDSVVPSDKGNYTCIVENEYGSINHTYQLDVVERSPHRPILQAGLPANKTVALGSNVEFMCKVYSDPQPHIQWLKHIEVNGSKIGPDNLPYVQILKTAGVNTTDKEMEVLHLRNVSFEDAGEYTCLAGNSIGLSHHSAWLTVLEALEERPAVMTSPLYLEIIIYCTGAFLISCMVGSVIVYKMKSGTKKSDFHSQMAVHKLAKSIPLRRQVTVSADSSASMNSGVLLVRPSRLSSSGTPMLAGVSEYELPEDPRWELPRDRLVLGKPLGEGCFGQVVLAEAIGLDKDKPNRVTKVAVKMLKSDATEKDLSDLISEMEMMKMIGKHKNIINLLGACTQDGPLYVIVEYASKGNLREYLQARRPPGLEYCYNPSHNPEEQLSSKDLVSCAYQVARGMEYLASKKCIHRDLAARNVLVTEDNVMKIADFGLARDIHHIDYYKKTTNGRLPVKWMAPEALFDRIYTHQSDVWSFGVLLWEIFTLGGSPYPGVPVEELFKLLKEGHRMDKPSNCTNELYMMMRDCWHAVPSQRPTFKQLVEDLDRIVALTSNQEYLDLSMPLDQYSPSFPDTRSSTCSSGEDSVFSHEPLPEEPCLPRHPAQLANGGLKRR

pKd: 6.02
Substance: native, recombinant FGF-2 (from UniProt P09038 1-288) (ligand)
